The target of experiment [1] is T1, H3.1/H4 complex (His6 tags removed) (human, UniProt P68431;P62805). In words: native gel or EMSA. A general note: In EMSA bound probe runs differently from free probe, usually more slowly.
Experiment [2] concerns the target T2, H3t/H4 complex (His6 tags removed) (human, UniProt Q16695;P62805). The experiment in a line: native gel or EMSA.
The target of experiment [3] is His6-tagged H3.1/H4 complex (human, UniProt P68431;P62805). In words: pull-down.
The target in experiment [4] is His6-tagged H3t/H4 complex (human, UniProt Q16695;P62805). In words: pull-down.
The target of experiment [5] is T1, H3.1/H4 complex (His6 tags removed). In words: pull-down.
Experiment [6] has as its target T2, H3t/H4 complex (His6 tags removed). The experiment in a line: pull-down.

B1: human Nap1 (nucleosome assembly protein 1), His6 tag removed (natural protein)
chain: MADIDNKEQSELDQDLDDVEEVEEEETGEETKLKARQLTVQMMQNPQILAALQERLDGLVETPTGYIESLPRVVKRRVNALKNLQVKCAQIEAKFYEEVHDLERKYAVLYQPLFDKRFEIINAIYEPTEEECEWKPDEEDEISEELKEKAKIEDEKKDEEKEDPKGIPEFWLTVFKNVDLLSDMVQEHDEPILKHLKDIKVKFSDAGQPMSFVLEFHFEPNEYFTNEVLTKTYRMRSEPDDSDPFSFDGPEIMGCTGCQIDWKKGKNVTLKTIKKKQKHKGRGTVRTVTKTVSNDSFFNFFAPPEVPESGDLDDDAEAILAADFEIGHFLRERIIPRSVLYFTGEAIEDDDDDYDEEGEEADEEGEEEGDEENDPDYDPKKDQNPAECKQQ
In the case of B1, the binding result in experiment [1], in experiment [2], in experiment [3] and in experiment [4] was “binds” each time.

B2: His6-tagged human Nap2 (natural protein)
chain: MADHSFSDGVPSDSVEAAKNASNTEKLTDQVMQNPRVLAALQERLDNVPHTPSSYIETLPKAVKRRINALKQLQVRCAHIEAKFYEEVHDLERKYAALYQPLFDKRREFITGDVEPTDAESEWHSENEEEEKLAGDMKSKVVVTEKAAATAEEPDPKGIPEFWFTIFRNVDMLSELVQEYDEPILKHLQDIKVKFSDPGQPMSFVLEFHFEPNDYFTNSVLTKTYKMKSEPDKADPFSFEGPEIVDCDGCTIDWKKGKNVTVKTIKKKQKHKGRGTVRTITKQVPNESFFNFFNPLKASGDGESLDEDSEFTLASDFEIGHFFRERIVPRAVLYFTGEAIEDDDNFEEGEEGEEEELEGDEEGEDEDDAEINPKV
Turning to B2, the binding result in experiment [5] and in experiment [6] was “binds” throughout.

B3: His6-tagged human Nap1 (natural protein)
chain: B1 chain
On to B3, for which the binding result in experiment [5] and in experiment [6] was “binds” in each case.

B4: human Nap2, His6 tag removed (natural protein)
chain: B2 chain
As for B4, the binding result in experiment [3] and in experiment [4] was “binds” each time.

Source of the values: PMC2367731 (Nucleic Acids Research, 2008).
